Assay results from patent publication US20200199241A1 (Chugai, published 2020).
Positions count from the first letter of the chain named.

B1: IgG1-F764 (antibody)
heavy: QVQLQESGPGLVKPSETLSLTCAVSGHSISHDHAWSWVRQPPGEGLEWIGFISYSGITNYNPSLQGRVTISRDNSKNTLYLQMNSLRAEDTAVYYCARSLARTTAMDYWGEGTLVTVSSASTKGPSVFPLAPSSKSTSGGTAALGCLVKDYFPEPVTVSWNSGALTSGVHTFPAVLQSSGLYSLSSVVTVPSSSLGTQTYICNVNHKPSNTKVDKKVEPKSCDKTHTCPPCPAPELLGGDSVFLFPPKPKDTLMISRTPEVTCVVVDVSHEDPEVKFNWYVDGVEVHNAKTKPREEQYNSTYRVVSVLQVLHADWLNGKEYKCKVSNKALPAPIEKTISKAKGQPREPQVYTLPPSRDELTKNQVSLTCLVKGFYPSDIAVEWESNGQPENNYKTTPPVLDSDGSFFLYSKLTVDKSRWQQGNVFSCSVMHEALHYHYTQKSLSLSP
light: not shown
notes: EU numbering; copies: 2 + 2
B2: IgG1-F783 (antibody)
heavy: B1 heavy with D240P, M254Y, Q309T, A313Q, D415A
light: not shown
notes: EU numbering; copies: 2 + 2
B3: IgG1-F777 (antibody)
heavy: B1 heavy with D240P, M254Y, Q309T, A313Q, E347A
light: not shown
notes: EU numbering
B4: IgG1-F784 (antibody)
heavy: B1 heavy with D240P, M254Y, Q309T, L311A, A313Q
light: not shown
notes: EU numbering; copies: 2 + 2
B5: IgG1-F775 (antibody)
heavy: B1 heavy with D240P, M254Y, Q309T, A313Q, K340A
light: not shown
notes: EU numbering; copies: 2 + 2
B6: IgG1-F773 (antibody)
heavy: B1 heavy with D240P, M254Y, V284A, Q309T, A313Q
light: not shown
notes: EU numbering; copies: 2 + 2
B7: IgG1-F781 (antibody)
heavy: B1 heavy with D240P, M254Y, Q309T, A313Q, S377A
light: not shown
notes: EU numbering; copies: 2 + 2
B8: IgG1-F769 (antibody)
heavy: B1 heavy with D240P, L311E, A313H
light: not shown
notes: EU numbering; copies: 2 + 2
B9: IgG1-F786 (antibody)
heavy: B1 heavy with D240P, M254Y, S256T, N288E
light: not shown
notes: EU numbering; copies: 2 + 2
B10: IgG1-F772 (antibody)
heavy: B1 heavy with D240P, M254Y, K276A, Q309T, A313Q
light: not shown
notes: EU numbering; copies: 2 + 2
B11: IgG1-F771 (antibody)
heavy: B1 heavy with D240P, M254Y, E274A, Q309T, A313Q
light: not shown
notes: EU numbering; copies: 2 + 2
B12: IgG1-F779 (antibody)
heavy: B1 heavy with D240P, M254Y, Q309T, A313Q, N363A
light: not shown
notes: EU numbering; copies: 2 + 2
B13: IgG1-F767 (antibody)
heavy: B1 heavy with D240P, L311E
light: not shown
notes: EU numbering; copies: 2 + 2
B14: IgG1-F774 (antibody)
heavy: B1 heavy with D240P, M254Y, N288A, Q309T, A313Q
light: not shown
notes: EU numbering; copies: 2 + 2
B15: IgG1-F776 (antibody)
heavy: B1 heavy with D240P, M254Y, Q309T, A313Q, K342A
light: not shown
notes: EU numbering; copies: 2 + 2
B16: IgG1-F766 (antibody)
heavy: B1 heavy with D240P, Q309A, L311E
light: not shown
notes: EU numbering; copies: 2 + 2
B17: IgG1-F768 (antibody)
heavy: B1 heavy with D240P, Q309A, L311E, A313H
light: not shown
notes: EU numbering; copies: 2 + 2
B18: IgG1-F782 (antibody)
heavy: B1 heavy with D240P, M254Y, Q309T, A313Q, Y393A
light: not shown
notes: EU numbering; copies: 2 + 2
B19: IgG1-F765 (antibody)
heavy: B1 heavy with M254Y, L311E
light: not shown
notes: EU numbering; copies: 2 + 2
B20: IgG1-F780 (antibody)
heavy: B1 heavy with D240P, M254Y, Q309T, A313Q, Q364A
light: not shown
notes: EU numbering; copies: 2 + 2
B21: IgG1-F770 (antibody)
heavy: B1 heavy with D240P, M254Y, T258A, Q309T, A313Q
light: not shown
notes: EU numbering; copies: 2 + 2
B22: IgG1-F785 (antibody)
heavy: B1 heavy with D240P, M254Y, Q309T, L311H, A313Q
light: not shown
notes: EU numbering; copies: 2 + 2

These binders were tested against T1, soluble human FcRn complexed with β2-microglobulin (human, UniProt P61769 21-119, limits assumed) (assay: Biacore SPR, pH 7.0;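 note: test antibodies captured on a Protein L chip with human FcRn flowed over as analyte, KD obtained as the ratio of dissociation to association rate constants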).
T1 construct: also called hFcRn
T1 sequence (chain, as listed by the source limits assumed, chain 1 of 2): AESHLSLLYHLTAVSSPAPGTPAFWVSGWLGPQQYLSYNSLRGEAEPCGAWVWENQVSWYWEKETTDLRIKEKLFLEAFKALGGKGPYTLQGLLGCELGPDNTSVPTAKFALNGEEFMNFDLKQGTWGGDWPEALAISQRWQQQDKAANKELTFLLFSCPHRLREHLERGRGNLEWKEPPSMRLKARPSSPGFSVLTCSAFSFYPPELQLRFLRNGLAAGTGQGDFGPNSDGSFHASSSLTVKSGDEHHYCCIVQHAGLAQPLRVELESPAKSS
T1 sequence (P61769 21-119 limits assumed, chain 2 of 2): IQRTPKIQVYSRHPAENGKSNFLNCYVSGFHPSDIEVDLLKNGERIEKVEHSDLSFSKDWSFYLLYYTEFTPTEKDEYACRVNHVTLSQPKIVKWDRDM
Procedure: A kinetic analysis of binding between human FcRn and the aforementioned antibodies was carried out using the BIACORE™ T100 or T200 surface plasmon resonance system (GE Healthcare). The antibodies being tested were captured on the CM4 Sensor Chip (GE Healthcare) on which a suitable amount of Protein L (ACTIGEN® protein (Alltech)) was suitably immobilized by amine coupling. Next, diluted human FcRn and a running buffer used as a blank were injected to allow the human FcRn to interact with the antibody captured on the sensor chip. A buffer consisting of 50 mmol/L sodium phosphate, 150 mmol/L NaCl and 0.05% (w/v) polysorbate 20 (Tween 20®) (pH 7.0 or pH 7.4) was used for the running buffer, and each buffer was also used to dilute the human FcRn. 10 mmol/L glycine-HCl (pH 1.5) was used to regenerate the sensor chip. All measurements of binding were carried out at 25° C. The KD(M) of each antibody to human FcRn was calculated based on kinetics parameters, i.e., the association rate constant ka (1/Ms) and the dissociation rate constant kd (1/s) calculated from a sensorgram obtained by the measurement. The BIACORE™ T100 or T200 Evaluation Software (GE Healthcare) was used to calculate each parameter.

Going from B1 to B2, the Kd falls from 630 nM to 400 nM (1.6-fold).

B3 and B4 are within 1.5-fold of each other in Kd: 390 nM for the first, 500 nM for the second.

Going from B5 to B6, the Kd falls from 620 nM to 390 nM (1.6-fold). The second binds more tightly here.

B7 and B8 are within 1.5-fold of each other in Kd: 370 nM for the first, 460 nM for the second.

Going from B9 to B10, the Kd rises from 28 nM to 380 nM (14-fold). The first binds more tightly here.

B11 and B12 are within 1.5-fold of each other in Kd: 400 nM for the first, 390 nM for the second.

B13 and B14 are within 1.5-fold of each other in Kd: 430 nM for the first, 400 nM for the second.

Going from B15 to B16, the Kd rises from 390 nM to 600 nM (1.5-fold).

Going from B17 to B18, the Kd falls from 640 nM to 350 nM (1.8-fold). The second binds more tightly here.

Going from B19 to B20, the Kd rises from 85 nM to 390 nM (4.6-fold).

B21 and B22 are within 1.5-fold of each other in Kd: 500 nM for the first, 740 nM for the second.
